This is an account of results in patent US20220213176A1 (SHANGHAITECH UNIVERSITY, published 2022).

In one test the target is T1, HCoV-229E spike (HCoV-229E, UniProt P15423 16-1173).
T1 construct: whole, on cells
T1 sequence: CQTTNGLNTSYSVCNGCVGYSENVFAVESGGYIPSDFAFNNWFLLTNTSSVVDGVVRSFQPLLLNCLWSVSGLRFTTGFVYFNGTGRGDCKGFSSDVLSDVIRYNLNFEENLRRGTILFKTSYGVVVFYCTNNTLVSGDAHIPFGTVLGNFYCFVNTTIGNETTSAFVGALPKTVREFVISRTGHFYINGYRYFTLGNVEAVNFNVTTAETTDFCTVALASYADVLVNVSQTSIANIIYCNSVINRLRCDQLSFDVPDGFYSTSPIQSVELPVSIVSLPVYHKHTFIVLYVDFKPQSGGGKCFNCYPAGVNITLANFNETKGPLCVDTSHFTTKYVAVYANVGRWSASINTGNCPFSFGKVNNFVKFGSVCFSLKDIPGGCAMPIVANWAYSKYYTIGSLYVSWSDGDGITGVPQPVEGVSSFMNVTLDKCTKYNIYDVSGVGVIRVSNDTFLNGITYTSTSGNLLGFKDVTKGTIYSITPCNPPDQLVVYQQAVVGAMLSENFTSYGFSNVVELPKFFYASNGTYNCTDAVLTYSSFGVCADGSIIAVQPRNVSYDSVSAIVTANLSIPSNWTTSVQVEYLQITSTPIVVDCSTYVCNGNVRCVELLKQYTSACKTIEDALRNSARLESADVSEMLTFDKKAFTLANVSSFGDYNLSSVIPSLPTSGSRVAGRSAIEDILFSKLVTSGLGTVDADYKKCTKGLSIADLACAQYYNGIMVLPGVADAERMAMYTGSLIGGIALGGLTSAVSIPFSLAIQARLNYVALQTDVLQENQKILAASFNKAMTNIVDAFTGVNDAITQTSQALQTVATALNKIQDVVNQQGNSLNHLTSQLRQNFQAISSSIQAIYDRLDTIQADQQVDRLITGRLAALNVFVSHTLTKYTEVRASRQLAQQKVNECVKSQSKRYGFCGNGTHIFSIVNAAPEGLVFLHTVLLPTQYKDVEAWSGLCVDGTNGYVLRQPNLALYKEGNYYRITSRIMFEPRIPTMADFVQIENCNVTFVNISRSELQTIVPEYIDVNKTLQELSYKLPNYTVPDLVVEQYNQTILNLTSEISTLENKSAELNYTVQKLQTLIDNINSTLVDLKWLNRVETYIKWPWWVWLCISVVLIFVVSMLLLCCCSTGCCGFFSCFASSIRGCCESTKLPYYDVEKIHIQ
The experiment in a line: FACS, transfected HEK293T cells, IgG4 antibody. (In flow cytometry, cells or beads pass a laser one at a time.)

A further test deals with T2, HCoV-HKU1 spike (HCoV-HKU1, UniProt Q5MQD0 13-1356).
T2 construct: whole, on cells
T2 sequence: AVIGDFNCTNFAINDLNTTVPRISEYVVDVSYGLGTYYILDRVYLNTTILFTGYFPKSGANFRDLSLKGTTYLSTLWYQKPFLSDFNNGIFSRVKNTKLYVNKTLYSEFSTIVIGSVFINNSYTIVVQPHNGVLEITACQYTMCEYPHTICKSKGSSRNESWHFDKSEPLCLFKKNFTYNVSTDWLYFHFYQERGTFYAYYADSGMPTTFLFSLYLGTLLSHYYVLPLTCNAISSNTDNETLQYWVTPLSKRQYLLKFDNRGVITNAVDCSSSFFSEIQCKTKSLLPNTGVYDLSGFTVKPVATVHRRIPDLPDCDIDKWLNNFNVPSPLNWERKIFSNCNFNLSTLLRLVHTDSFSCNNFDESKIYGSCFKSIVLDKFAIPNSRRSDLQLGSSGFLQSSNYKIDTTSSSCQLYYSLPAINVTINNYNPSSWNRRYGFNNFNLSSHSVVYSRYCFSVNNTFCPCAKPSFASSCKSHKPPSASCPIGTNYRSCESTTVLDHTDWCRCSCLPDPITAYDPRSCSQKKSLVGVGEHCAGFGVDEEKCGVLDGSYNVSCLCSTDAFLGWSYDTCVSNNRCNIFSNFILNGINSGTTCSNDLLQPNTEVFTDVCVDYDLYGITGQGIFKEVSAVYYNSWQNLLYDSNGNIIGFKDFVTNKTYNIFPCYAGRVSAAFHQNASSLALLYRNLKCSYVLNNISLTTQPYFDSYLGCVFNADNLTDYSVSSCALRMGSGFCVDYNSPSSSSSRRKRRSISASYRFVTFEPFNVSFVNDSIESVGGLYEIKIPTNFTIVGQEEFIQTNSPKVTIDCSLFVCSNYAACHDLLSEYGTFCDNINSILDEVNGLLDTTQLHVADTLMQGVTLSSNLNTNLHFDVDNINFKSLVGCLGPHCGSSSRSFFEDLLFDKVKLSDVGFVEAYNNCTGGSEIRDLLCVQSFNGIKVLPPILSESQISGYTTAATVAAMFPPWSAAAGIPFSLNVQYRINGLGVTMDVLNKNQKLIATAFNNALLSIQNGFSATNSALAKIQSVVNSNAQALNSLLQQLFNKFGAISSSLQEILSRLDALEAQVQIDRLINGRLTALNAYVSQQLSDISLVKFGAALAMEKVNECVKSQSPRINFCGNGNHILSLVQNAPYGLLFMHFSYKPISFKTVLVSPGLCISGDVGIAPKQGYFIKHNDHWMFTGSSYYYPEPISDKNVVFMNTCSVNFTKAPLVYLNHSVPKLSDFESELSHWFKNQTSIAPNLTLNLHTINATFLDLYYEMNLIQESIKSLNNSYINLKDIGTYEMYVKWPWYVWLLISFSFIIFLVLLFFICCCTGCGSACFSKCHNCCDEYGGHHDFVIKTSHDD
Description: FACS, transfected HEK293T cells, IgG4 antibody.

B1: S-D4 (antibody, V domains shown)
VH: QVQLQESGGGVVQPGRSLRLSCEVSGFTFSDYGMHWVRQAPGKGLEWVAVIWSEGSTEYYADSVKGRFTISRDNSKDTLYLQMNSLRAEDTAVYYCARPGYPTSTDRSPAAAGARQYYYYGMDVWGQGTTVTVSS
VL: NFMLTQPHSVSESPGKTVTISCTRSGGSGAANYVQWYQQRPGSSPTTLIYEDSRRPPGVPDRFSGSVDTSSNSASLTISGLQTEDEADYYCQSYDSSNHVVFGGGTKLTVLG
notes: also called S-D4 dimer; S-D4 IgG4
Regarding B1, the binding result in the test with HCoV-229E spike and with HCoV-HKU1 spike was “no binding” in each case.

B2: S-E6 (antibody, V domains shown)
VH: QVTLRESGPGLVKPSETLSLTCAVSGGSLSSVNYYWSWIRQHPGKGLEWIGYIYYSGSTNYNPSLKSRVTMSLDTSKNQFSLKLSSVTAADTAVYYCATPGAIMGALHIWGQGTLVTVSS
VL: QAVLTQPSSASSTPGQRVIISCSGSSSNIGSNTVSWYQQVPGAAPKLLIYFDYRRPSGVPDRFSGTRSGTSASLGISGLQSEDEADYYCAAWDDSLSAWVFGRGTKLTVLG
notes: also called S-E6 dimer; dimer S-E6
As to B2, the binding result with HCoV-229E spike and in the test with HCoV-HKU1 spike was “no binding” each time.

B3: S-B8 (antibody, V domains shown)
VH: QVQLVQSGGGLIQPGGSLRLSCAASGFTVSLSHMNWVRQAPGKGLEWVSITYGDGNSDYADSVKGRFTISRDNSKNTLYLQMNSLRAEDTAVYYCAREYYYGMDVWGQGTTVTVSS
VL: not shown
notes: also called S-B8 dimer
Take B3: the binding result with HCoV-229E spike and with HCoV-HKU1 spike was “no binding” in each case.
